Source: patent publication US20230071889A1 (OSE IMMUNOTHERAPEUTICS, published 2023)

T1: CD132 receptor (Sinobiological 10555-H08B) (UniProt P31785 23-254)
T1 construct: Bought protein injected over the CD127/IL-7 complex in Biacore; also called common γ chain
T1 sequence (looked up): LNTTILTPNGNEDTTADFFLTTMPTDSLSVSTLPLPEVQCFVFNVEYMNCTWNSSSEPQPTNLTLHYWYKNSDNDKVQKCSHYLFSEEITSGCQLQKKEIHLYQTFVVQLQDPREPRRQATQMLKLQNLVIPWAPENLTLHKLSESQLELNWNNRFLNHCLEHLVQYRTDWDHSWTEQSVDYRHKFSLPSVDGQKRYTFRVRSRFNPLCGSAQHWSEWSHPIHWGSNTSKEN


Tests used:
[1] = molecular target: T2, recombinant human PD-1 (Example 2) (human, UniProt Q15116 25-167, limits assumed, biotinylated in the PD-L1 ELISA (site not stated)); experiment: competition ELISA: PD-L1 coated, antibody mixed with biotinylated PD-1 at 0.6 ug/mL, streptavidin peroxidase; blocked ligand PD-L1
T2 construct: Biotinylated form in the ELISA on PD-L1; recombinant human PD-1 (100 nM) in the Biacore assay on PD-L2; also called biotinylated recombinant human PD-1; PD-1 recombinant protein

[2] = molecular target: T1, CD132 receptor (Sinobiological …); experiment: Biacore, CD132 injected over the CD127/IL-7 complex on the chip
Protocol: CD127 (Sinobiological, 10975-H03H-50) was immobilized onto a CM5 biochip at 20 μg/ml and the indicated protein were added at serial concentrations (0.34; 1.03; 3.11; 9.3; 28 nM).

T2 sequence (Q15116 25-167 limits assumed): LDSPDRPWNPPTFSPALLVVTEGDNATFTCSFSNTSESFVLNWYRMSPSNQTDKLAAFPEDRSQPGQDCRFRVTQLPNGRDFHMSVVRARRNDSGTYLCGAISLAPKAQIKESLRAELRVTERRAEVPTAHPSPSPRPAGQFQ

| IC50 (read off the curve) [1] [nM] | Kd [2] [nM] | Binder |
| --- | --- | --- |
| ~4 | – | anti-PD1 antibody, chimeric form (antibody, human IgG4 S228P, kappa, V domains shown, also called anti-PD1 alone) VH: QIQLVQSGPELKKPGETVKISCKASGYTFTHYGMNWVKQAPGKGLKWMGWINTNTGEPTYAEEFKGRFAFSLETSASAAFLQINNLKNEDTATYFCAKEREPGMDSWGQGTSVTVSS VL: DVLLTQTPLSLPVSLGDQASISCRSSQNIVHANGNTYLEWYLQKPGQSPKLLIYKVSNRFSGVPDRFSGSGSGTDFTLKITRVEAEDLGVYYCFQGSHVPNTFGGGTKLEIKR |
| – | 198 | recombinant IL-7 cytokine (rIL7) (Biorad PHP046) (ligand, human, UniProt P13232 26-177, looked up, Bought cytokine) DCDIEGKDGKQYESVLMVSIDQLLDSMKEIGSNCLNNEFNFFKRHICDANKEGMFLFRAARKLRQFLKMNSTGDFDLHLLKVSEGTTILLNCTGQVKGRKPAALGEAQPTKSLEENKSLKEQKKLNDLCFLKRLLQEIKTCWNKILMGTKEH |
